Assay results taken from the supplement of paper PMC7877785.
± gives the uncertainty stated by the source.

Assay: self-splicing fitness, log relative to wild type (ln ratio); higher = more splicing; Tetrahymena group I intron in knt gene, E. coli kanamycin selection, DiMSum; sequences stand for … in CUCUCU…GGAGGGAAAAGUUAUCAGGCAUGCACCUGGUAGCUAGUCUUUAAACCAAUAGAUUGCAUCGGUUUAAAAGGCAAGACCGUCAAAUUGCGGGAAAGGGGUCAACAGCCGUUCAGUACCAAGUCUCAGGGGAAACUUUGAGAUGGCCUUGCAAAGGGUAUGGUAAUAAGCUGACGGACAUGGUCCUAACCACGCAGCCAAGUCCUAAGUCAACAGAUCUUCUGUUGAUAUGGAUGCAGUUCACAGACUAAAUGUCGGUCGGGGAAGAUGUAUUCUUCUCAUAAGAUAUAGUCGGACCUCUCCUUAAUGGGAGCUAGCGGAUGAAGUGAUGCAACACUGGAGCCGCUGGGAACUAAUUUGUAUGCGAAAGUAUAUUGAUUAGUUUUGGAGUACUCGUGGUCG
How it was run: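 Colonies from six replicate transformations of E. coli BL21(DE3) were pooled and amplicon-sequenced on an Illumina HiSeq 2500. The library placed an intron with all eight P1ex-region nucleotides randomised inside the knt kanamycin-resistance gene on pET-22b(+), and cells grew overnight at 37°C or 30°C on LB agar with or without 25 μg/mL kanamycin (plus 100 μg/mL carbenicillin, 50 μM IPTG, 0.2% rhamnose). Fitness is the DiMSum error-weighted combination of wild-type-normalised replicate fold changes, kanamycin versus none.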

Row | Sequence | self-splicing fitness (ln) (30 °C) | self-splicing fitness (ln) (37 °C)
1 | UAUGAGCAAUAUUACGUGCC | -4.14 ± 0.46 | -2.28 ± 0.31
2 | UAUGAGCAAUAUUACGUUGG | -4.07 ± 0.3 | -2.24 ± 0.22
3 | UAUUAGCAAUAUUACGACGU | -1.02 ± 0.2 | -0.561 ± 0.17
4 | UAUUAGCAAUAUUACGACUC | -2.24 ± 0.21 | -1.08 ± 0.3
5 | UAUUAGCAAUAUUACGAGAU |  | -2.01 ± 0.34
6 | UAUUAGCAAUAUUACGAUCU | -0.883 ± 0.12 | 0.167 ± 0.17
7 | UAUUAGCAAUAUUACGCGGA | -2.1 ± 0.2 | -1.08 ± 0.13
8 | UAUUAGCAAUAUUACGGACG | -0.257 ± 0.11 | 0.171 ± 0.12
9 | UAUUAGCAAUAUUACGGAGA | -2.09 ± 0.25 | -2.18 ± 0.32
10 | UAUUAGCAAUAUUACGGCUG | -0.432 ± 0.079 | 0.0834 ± 0.13
11 | UAUUAGCAAUAUUACGGUUC | -3.84 ± 0.39 | -3 ± 0.29
12 | UAUUAGCAAUAUUACGUAAU | -3.24 ± 0.26 | -1.93 ± 0.24
13 | UAUUAGCAAUAUUACGUACG | -0.0813 ± 0.071 | -0.262 ± 0.09
14 | UCAAAGCAAUAUUACGAGCC | -2.27 ± 0.23 | 
15 | UCAAAGCAAUAUUACGAUAA | -1.43 ± 0.11 | -0.335 ± 0.13
16 | UCAAAGCAAUAUUACGAUGU | -1.09 ± 0.074 | -0.341 ± 0.081
17 | UCAAAGCAAUAUUACGAUUG | -2.46 ± 0.14 | -0.73 ± 0.11
18 | UCAAAGCAAUAUUACGCACG | -1.18 ± 0.11 | -0.632 ± 0.16
19 | UCAAAGCAAUAUUACGCAGU | -3.16 ± 0.19 | -3.42 ± 0.31
20 | UCAAAGCAAUAUUACGCCGA | -1.49 ± 0.15 | -0.381 ± 0.12
21 | UCAAAGCAAUAUUACGCGGC | -3.92 ± 0.3 | -2.59 ± 0.23
22 | UCAAAGCAAUAUUACGCUAA | -3.48 ± 0.25 | -2.87 ± 0.27
23 | UCAAAGCAAUAUUACGCUUG | -2.27 ± 0.14 | -2.58 ± 0.26
24 | UCAAAGCAAUAUUACGGCCA | -0.546 ± 0.13 | -0.278 ± 0.11

Row | Sequence | self-splicing fitness (ln) (30 °C) | self-splicing fitness (ln) (37 °C)
25 | UCAAAGCAAUAUUACGGUGG | -1.79 ± 0.058 | -1.05 ± 0.083
26 | UCAAAGCAAUAUUACGUACG | -0.29 ± 0.067 | 0.0719 ± 0.077
27 | UCAAAGCAAUAUUACGUACU | -3.16 ± 0.45 | -2.28 ± 0.37
28 | UCAAAGCAAUAUUACGUGCG | -1.13 ± 0.045 | -0.496 ± 0.064
29 | UCACAGCAAUAUUACGACGG | -0.234 ± 0.066 | 0.353 ± 0.086
30 | UCACAGCAAUAUUACGACUU | -3.28 ± 0.2 | -1.65 ± 0.12
31 | UCACAGCAAUAUUACGAGAG | -3.55 ± 0.16 | -2.63 ± 0.19
32 | UCACAGCAAUAUUACGAGCG | -0.409 ± 0.064 | -0.305 ± 0.093
33 | UCACAGCAAUAUUACGCUAC | -3.12 ± 0.19 | -2.77 ± 0.21
34 | UCACAGCAAUAUUACGGAUG | -2.4 ± 0.12 | -1.89 ± 0.13
35 | UCACAGCAAUAUUACGGGAU | -3.45 ± 0.23 | -2.36 ± 0.24
36 | UCACAGCAAUAUUACGGGUG | -2.37 ± 0.09 | -1.67 ± 0.083
37 | UCACAGCAAUAUUACGGGUU | -3.77 ± 0.16 | -2.33 ± 0.12
38 | UCACAGCAAUAUUACGGUCU | -1.01 ± 0.081 | -1.67 ± 0.11
39 | UCACAGCAAUAUUACGUCCC | -4.32 ± 0.42 | -2.01 ± 0.45
40 | UCACAGCAAUAUUACGUGGU | -4.05 ± 0.19 | -3.15 ± 0.18
41 | UCACAGCAAUAUUACGUGUC | -3.55 ± 0.2 | -2.6 ± 0.2
42 | UCACAGCAAUAUUACGUUAC | -3.74 ± 0.23 | -2.06 ± 0.16
43 | UCACAGCAAUAUUACGUUAG | -2.17 ± 0.077 | -1.49 ± 0.088
44 | UCACAGCAAUAUUACGUUCU | -3.63 ± 0.22 | -1.5 ± 0.13
45 | UCAGAGCAAUAUUACGAACC |  | -1.15 ± 0.42
46 | UCAGAGCAAUAUUACGAACG | -3.12 ± 0.32 | -1.85 ± 0.3
47 | UCAGAGCAAUAUUACGACAC | -2.63 ± 0.37 | -0.191 ± 0.45
48 | UCAGAGCAAUAUUACGACGG | -0.865 ± 0.14 | 0.304 ± 0.18
